The subject of one assay is C57BL/6 mice. The assay can be described thus: OVA-induced mast cell-dependent airway inflammation model. The class given is in vivo, mouse. The conditions noted are these: intranasal pretreatment before each OVA challenge. On the procedure: Mice were sensitized with OVA (10 μg in 0.1 ml saline) at days 0, 7, 14, 21, 28, and 35. Sensitized mice were challenged with OVA (20 μg in 20 μl saline) at days 40, 43 and 46. Some mice were pretreated with GST, GST-N19 (400 μg in PBS), or N19 peptide (40 μg in 2% DMSO-containing PBS) 15 minutes before OVA challenge. Twenty-four hours after the last challenge, lung function in response to methacholine was tested using FlexiVent system (SCIREQ Scientific Respiratory Equipment). Mice were sacrificed and plasma, BAL fluids, and lung tissues were collected. Cells in BAL fluids were counted, and specific cell numbers were calculated after May-Giemsa staining of Cytospin preparations. Immunofluorescence microscopy was performed on membrane-permeabilized and non-permeabilized lung tissues. For staining of lung tissues by staining of H&E and periodic acid-Schiff (PAS), lung tissues were fixed with formalin and embedded in paraffin. For measurement of cytokine levels in lung tissues, lung homogenates were prepared (Oyoshi et al., Immunol. 120:303 (2007)) and cytokines quantified by ELISA. HRF in lung homogenates and plasma was SDS-PAGE and immunoblotting with anti-HRF Ab (Santa Cruz Biotechnology).
Asthma is a type 2 helper T cell-driven, chronic inflammatory lung disease (Wills-Karp, Annu Rev Immunol 17, 255 (1999)). To study HRF involvement in allergic airway inflammation, an airway inflammation model was utilized, in which mast cells are implicated in amplifying antigen-dependent chronic inflammation (Williams, et al., J Exp Med 192, 455 (Aug. 7, 2000)). C57BL/6 mice were first sensitized with OVA (10 μg) at days 0, 7, 14, 21, 28 and 35. At days 40, 43 and 46, mice were intranasally challenged with OVA (20 μg) or PBS. Some mice were intranasally pretreated with GST or GST-N19 (400 μg) before every OVA challenge. Twenty-four hours after the last challenge, mice were sacrificed and BAL fluids and lung tissues were collected. Lung tissues were homogenized.

The test system of a further assay is HRF/IgE binding. The assay can be described thus: Competition ELISA of IgE binding to GST-mHRF-coated wells. The conditions noted are these: competitor incubated 2 hours. More on the design: species or system mouse. On the procedure:
To identify an inhibitor of HRF/Ig interactions to dissect the extracellular function (═HRF function as a cytokine) separate from the intracellular functions in vivo settings, the major Ig-interacting HRF sequence was studied as a specific inhibitor of HRF/Ig interactions. IgE molecules were incubated in GST-mHRF-coated wells in the presence or absence (−) of the indicated concentrations of competitors, GST-N19, GST-mHRF or mHRF-His6 for 2 hours. After incubation, bound-IgE was detected by incubation with biotinylated anti-mouse IgE mAb, followed by streptavidin-HRP. […] By contrast, none of the shorter mHRF peptides tested (residues 1-6, 1-12, 5-19, and 9-19) inhibited HRF/IgE binding. GST-N19 inhibited HRF/IgG binding as well.
A general note: ELISA stands for enzyme-linked immunosorbent assay.

The subject of a further assay is IgE-sensitized mice. In words: Passive cutaneous anaphylaxis induced by mHRF in IgE-sensitized ears. The class given is in vivo, mouse. The conditions noted are these: 8 hours after injection in IgE-sensitized ears. How it is done: Mouse ears were first sensitized with 0.5 μg anti-TNP (C38-2 in the right ear and C48-2 in the left ear) IgE. After 24 hours, Evans' blue dye was intravenously (i.v.) injected, and TNP26-BSA (Ag: 0.1 μg) or mHRF-His6 (10 μg) were immediately injected into the ears. The acute (30 minute) reactions were analyzed by measurement of Evans' blue dye leakage. The ear thickness was measured using a micrometer (Mitutoyo) at 0.5, 1, 2, 4, 6, 8, 12, and 24 hours after mHRF-His6challenge. As a negative control, saline was injected into the ears in place of antigen or HRF challenge. IgG-mediated response was performed by sensitization with 2 μg IgG1 (in place of anti-TNP IgE) and challenge with anti-mouse IgG1 Ab (0.6 μg: Southern Biotechnology, in place of TNP26-BSA). Engraftmanet of Kit^W-sh/W-sh mice with BMMCs was performed 6 weeks before study (Nakano, T., et al. J Exp Med 162:1025-1043 (1985)). In some studies, mice were sensitized and stimulated as described above but without Evans blue.
Here, mice were sensitized with the IgE. […] After 30 minutes, mice were sacrificed, and the amount of Evans blue dye leaked from the ears measured. […]
mHRF-His6 (H) was injected in IgE-sensitized ears and LPR was analyzed by measurement of ear thickness at 8 hours after injection. […]
IGELa2 IgE was intradermally injected into ears. […] Eight hours after injection, the ear thickness was measured (FIG. 7).

A further assay has as its system IgE. The assay can be described thus: ELISA with monomeric and dimeric HRF-His6 as capturing agent. In kind it is binding, mouse. On the procedure: Monomeric and dimeric HRF-His6 proteins purified by HPLC were coated onto plastic wells. After blocking, 206 (HRF-nonreactive) and IGELa2 (HRFreactive) IgEs were incubated. Bound IgEs were detected by incubation with biotin-conjugated anti-mouse IgE antibody, followed by incubation with horseradish peroxidase-conjugated streptavidin. The absorbance at 450 nm was measured after development of the color. […] The dimerizing ability of HRF with multiple Ig-binding sites strongly indicates the potential of HRF to crosslink Ig-bound Fc receptors.

A further assay deals with Unimmunized mice. In words: Intranasal HRF in naïve mice, BAL differential cell counting. In kind it is in vivo, mouse. The conditions noted are these: for Lung inflammation: naïve C57BL/6 (WT) mice, 40 μg intranasally three times. On the procedure: In light of the presence of HRF-reactive IgG in naïve mice and recent studies reporting the role of mast cells in the initiation of adaptive immune responses (Galli, et al., Nat Immunol 6, 135 (February, 2005)), the effect of HRF on naïve mice was assessed. Unimmunized C57BL/6 (WT), μMT, and FcRγ^−/− mice (n=5 per cohort) were treated intranasally with 40 μg mHRF-His6 three times every third day. PBS served as a negative control. BAL procedures were conducted 24 hours after the last HRF administration. Differential cell counting was performed on cytospin preparations stained with May-Giemsa. […] FcRγ is shared by multiple Fc receptors including FcεRI.

The next assay has as its system peritoneal mast cells. The assay can be described thus: β-hexosaminidase release (degranulation). The class given is cell-based, mouse. The conditions noted are these: cells sensitized with HRF-reactive IgE, 40 minutes. On the procedure: Mast cells were sensitized with 0.5 μg/ml IgE overnight. The mast cells were stimulated with TNP26-BSA or mHRF-His6 for 40 minutes in Tyrode's buffer. The amount of β-hexosaminidase (β-hex) in both supernatants and cell pellets was measured. The percentage of β-hex release was calculated as follows: % release=β-hex in supernatants/β-hex in supernatants+β-hex in cell pellets)
These hypersensitivity reactions appear to be dependent on mast cells, as the reactions were abolished in mast cell-deficient Kit^W-sh/W-sh mice and restored in Kit^W-sh/W-sh mice engrafted with WT BMMCs (FIG. 6A). […] Therefore, HRF and HRF-reactive IgE can induce anaphylactic responses in a mast cell- and FcεRI-dependent manner. Consistent with this, peritoneal mast cells sensitized with the HRF-reactive, but not the HRF-nonreactive, IgE were activated upon stimulation with HRF (FIG. 6D). After 40 minutes, both supernatants and cell pellets were collected and β-hexosaminidase release was analyzed (FIG. 6D).

Consider “N19 peptide: synthetic non-fusion N19 peptide, N-terminal 19 residue peptide of HRF (MIIYRDLISHDELFSDIYK; UniProt P63028 1-19, looked up, fragment)”, for which the Airway inflammation entry with C57BL/6 mice was “abrogated”.
For “residues 1-6: shorter mHRF peptide, residues 1-6 (MIIYRD; UniProt P63028 1-6, looked up, fragment)”, the “Inhibition of IgE binding to immobilized GST-mHRF” value (from here on “Inhibition of IgE binding”) in the assay on HRF/IgE binding is “none”.
“residues 1-12: shorter mHRF peptide, residues 1-12 (MIIYRDLISHDE; UniProt P63028 1-12, looked up, fragment)”: in the assay on HRF/IgE binding, the “Inhibition of IgE binding” value is “none”.
Regarding “residues 5-19: shorter mHRF peptide, residues 5-19 (RDLISHDELFSDIYK; UniProt P63028 5-19, looked up, fragment)”, in the assay with HRF/IgE binding, the “Inhibition of IgE binding” value was “none”.
The same measure, in the same setting: to “residues 9-19: shorter mHRF peptide, residues 9-19 (SHDELFSDIYK; UniProt P63028 9-19, looked up, fragment)” belongs “none”.

B1: mHRF-His6: C-terminally hexahistidine-tagged recombinant mouse histamine releasing factor (protein)
chain: MIIYRDLISHDELFSDIYKIREIADGLCLEVEGKMVSRTEGAIDDSLIGGNASAEGPEGEGTESTVVTGVDIVMNHHLQETSFTKEAYKKYIKDYMKSLKGKLEEQKPERVKPFMTGAAEQIKHILANFNNYQFFIGENMNPDGMVALLDYREDGVTPFMIFFKDGLEMEKCHHHHHH
Regarding B1, the “Late-phase reaction (LPR), ear swelling” value in the assay on IgE-sensitized mice is “as high as that induced by antigen”. The “Binding to IgE” value with IgE (dimeric form as capturing agent) and in the assay on IgE (monomeric form as capturing agent) was “can bind” in each case. In the assay on Unimmunized mice (B cell-deficient (μMT) or FcRγ−/− mice), the “HRF effects (lung inflammation)” value is recorded as “not observed”. Further, the Lung inflammation result in the assay on Unimmunized mice is reported as “induced weak lung inflammation”; in the assay with Unimmunized mice (listed as HRF) it was “weak lung inflammation is induced”. Also, the HRF-induced lung inflammation entry with Unimmunized mice (naïve FcεRIα−/− mice) is on record as “abrogated or reduced”. For the same molecule, in the assay with Unimmunized mice (naïve WT mice), the “Neutrophils and eosinophils in BAL fluids” value was “increased”. The “Mast cell activation (β-hexosaminidase release)” value in the assay with peritoneal mast cells was “activated”.

The values above are taken from patent US10370438B2, “Histamine-releasing factor (HRF), HRF-receptor and methods of modulating inflammation” (LA JOLLA INSTITUTE FOR ALLERGY AND IMMUNOLOGY, priority 2010, dated 2019).
